Assay results taken from US20230272045A1 (MONASH UNIVERSITY, published 2023).
Where no end group is shown, it is not given here.

B1: IL-1Ra (murine wild-type interleukin-1 receptor antagonist) (ligand)
chain: MRPSGKRPCKMQAFRIWDTNQKTFYLRNNQLIAGYLQGPNIKLEEKIDMVPIDLHSVFLGIHGGKLCLSCAKSGDDIKLQLEEVNITDLSKNKEEDKRFTFIRSEKGPTTSFESAACPGWFLCTTLEADRPVSLTNTPEEPLIVTKFYFQEDQ
notes: also called wild-type IL-1Ra; IL-1 receptor antagonist
B2: PDGF-BB (murine wild-type platelet-derived growth factor-BB) (ligand, UniProt P31240 82-190, looked up)
chain: SLGSLAAAEPAVIAECKTRTEVFQISRNLIDRTNANFLVWPPCVEVQRCSGCCNNRNVQCRASQVQMRPVQVRKIEIVRKKPIFKKATVTLEDHLACKCETIVTPRPVT
notes: also called wild-type PDGF-BB
B3: PDGF-BB/PIGF123-141 (other)
chain: SLGSLAAAEPAVIAECKTRTEVFQISRNLIDRTNANFLVWPPCVEVQRCSGCCNNRNVQCRASQVQMRPVQVRKIEIVRKKPIFKKATVTLEDHLACKCETIVTPRPVTRRRPKGRGKRRREKQRPTD
notes: not shown: 6x histidine tag at the N-terminus
B4: Placenta growth factor-2 (PIGF-2) (ligand)
chain: LPAVPPQQWALSAGNGSSEVEVVPFQEVWGRSYCRALERLVDVVSEYPSEVEHMFSPSCVSLLRCTGCCGDENLHCVPVETANVTMQLLKIRSGDRPSYVELTFSQHVRCECRPLREKMKPERRRPKGRGKRRREKQRPTDCHLCGDAVPRR
B5: amphiregulin (AREG) (ligand, UniProt P15514 101-198, looked up)
chain: SVRVEQVVKPPQNKTESENTSDKPKRKKKGGKNGKNRRNRKKKNPCNAEFQNFCIHGECKYIEHLEAVTCKCQQEYFGERCGEKSMKTHSMIDSSLSK
B6: neurturin (NRTN) (ligand, UniProt Q99748 96-197, looked up)
chain: ARLGARPCGLRELEVRVSELGLGYASDETVLFRYCAGACEAAARVYDLGLRRLRQRRRLRRERVRAQPCCRPTAYEDEVSFLDAHSRYHTVHELSARECACV
B7: GST-fused PIGF123-141 fragment (peptide)
chain: RRRPKGRGKRRREKQRPTD-6xHis
modifications: not fully specified (N-terminus); also: fused to GST (vector linker letters not given here)
notes: Expressed in E. coli BL21 (DE3), purified on GSTrap and then HisTrap, and used at 100 nM in the ELISA; not shown: glutathione S-transferase (GST) encoded by the expression vector pGEX6P-1; histidine tag (6xHis) added at the C-terminus of the fragment
B8: IL-1Ra/PIGF123-141 (other)
chain: MNHKVHHHHHHMRPSGKRPCKMQAFRIWDTNQKTFYLRNNQLIAGYLQGPNIKLEEKIDMVPIDLHSVFLGIHGGKLCLSCAKSGDDIKLQLEEVNITDLSKNKEEDKRFTFIRSEKGPTTSFESAACPGWFLCTTLEADRPVSLTNTPEEPLIVTKFYFQEDQRRRPKGRGKRRREKQRPTD
B9: NRTN146-157 fragment (GST-fused construct from pGEX6P-1) (peptide)
chain: RRLRQRRRLRRE
modifications: also: fused to GST (vector linker letters not given here), letters not given here
notes: Cloned into pGEX6P-1, expressed in E. coli BL21, and purified on GSTrap and His-tag columns; not shown: GST encoded by the expression vector pGEX6P-1; a His tag is implied by purification on a His-tag HP column
B10: AREG126-138 fragment (GST-fused construct from pGEX6P-1) (peptide)
chain: RKKKGGKNGKNRR
modifications: also: fused to GST (vector linker letters not given here), letters not given here
notes: as for B9

Assays:
[1] = molecular target: T1, human plasma fibronectin (human, UniProt P02751-8 32-2296, limits assumed); test: ELISA; ECM protein coated at 100 nM, soluble protein 0-100 nM, one-site fit
T1 construct: Coated on ELISA plates at 100 nM; also called Fn
Method: (§1) ELISA plates (Medium binding, Greiner bio-one) were coated with 100 nM of ECM proteins in 50 μl of PBS for 1 h at 37° C.; human plasma fibronectin (Sigma), human vitronectin (Peprotech), human tenascin C (R&D Systems), human fibrinogen (Enzyme Research Laboratories). Then, wells were washed with PBS-T (PBS with 0.05% Tween-20) and blocked with 300 l PBS-T containing 1% BSA for 1 h at room temperature. ECM and control wells (no ECM and blocked with BSA) were further incubated 1 h at room temperature with solutions of murine PDGF-BB (Peprotech), IL-1Ra (R&D Systems), or PIGF₁₂₃₋₁₄₁-fused proteins at concentrations ranging from 0 to 100 nM (50 μl in PBS-T containing 0.1% BSA; PROKEEP tubes, Watson bio lab). Then, wells were washed 3 times with PBS-T and bound PDGF-BB and IL-1Ra variants were detected using biotinylated antibodies in PBS-T containing 0.1% BSA. Antibodies used were from PDGF-BB DuoSet ELISA (R&D Systems, DY8464) for PDGF-BB and IL-1ra/IL-1F3 DuoSet ELISA (R&D Systems, DY480) for IL-1Ra. To calculate the dissociation constants (KD) specific-binding values were fitted with a one site specific binding model using A₄₅₀ nm=Bmax*[growth factors or IL-1Ra variants]/(KD+[growth factors or IL-1Ra variants]).

[2] = molecular target: T2, human vitronectin (human, UniProt P04004 20-478); test: as above
T2 construct: Coated on ELISA plates at 100 nM; also called Vn
Method: as §1

[3] = molecular target: T3, human tenascin C (human, UniProt P24821 23-2201, limits assumed); test: as above
T3 construct: Coated on ELISA plates at 100 nM; also called TnC; Tnc
Method: as §1

[4] = molecular target: T4, human fibrinogen (human, UniProt P02671 20-644; P02675 31-491; P02679 27-437, limits assumed); test: as above
T4 construct: Coated on ELISA plates at 100 nM; also called Fg
T4 sequence (looked up) 1: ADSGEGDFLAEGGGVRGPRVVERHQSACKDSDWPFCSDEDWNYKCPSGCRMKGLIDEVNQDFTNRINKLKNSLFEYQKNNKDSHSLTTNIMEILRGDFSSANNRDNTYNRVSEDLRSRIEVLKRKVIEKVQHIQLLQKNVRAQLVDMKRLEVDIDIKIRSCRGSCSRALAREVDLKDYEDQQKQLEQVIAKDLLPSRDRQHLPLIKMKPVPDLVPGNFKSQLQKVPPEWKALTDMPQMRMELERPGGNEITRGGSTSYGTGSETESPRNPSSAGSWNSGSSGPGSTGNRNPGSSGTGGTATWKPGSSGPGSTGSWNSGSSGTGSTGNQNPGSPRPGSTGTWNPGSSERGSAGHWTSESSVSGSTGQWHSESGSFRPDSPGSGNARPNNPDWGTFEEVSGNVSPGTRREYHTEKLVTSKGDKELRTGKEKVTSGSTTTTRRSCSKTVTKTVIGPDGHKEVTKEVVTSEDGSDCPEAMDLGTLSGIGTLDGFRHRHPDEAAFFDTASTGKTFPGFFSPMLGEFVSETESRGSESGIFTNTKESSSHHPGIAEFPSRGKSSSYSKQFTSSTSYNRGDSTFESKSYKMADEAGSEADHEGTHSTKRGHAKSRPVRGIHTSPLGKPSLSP
T4 sequence (looked up) 2: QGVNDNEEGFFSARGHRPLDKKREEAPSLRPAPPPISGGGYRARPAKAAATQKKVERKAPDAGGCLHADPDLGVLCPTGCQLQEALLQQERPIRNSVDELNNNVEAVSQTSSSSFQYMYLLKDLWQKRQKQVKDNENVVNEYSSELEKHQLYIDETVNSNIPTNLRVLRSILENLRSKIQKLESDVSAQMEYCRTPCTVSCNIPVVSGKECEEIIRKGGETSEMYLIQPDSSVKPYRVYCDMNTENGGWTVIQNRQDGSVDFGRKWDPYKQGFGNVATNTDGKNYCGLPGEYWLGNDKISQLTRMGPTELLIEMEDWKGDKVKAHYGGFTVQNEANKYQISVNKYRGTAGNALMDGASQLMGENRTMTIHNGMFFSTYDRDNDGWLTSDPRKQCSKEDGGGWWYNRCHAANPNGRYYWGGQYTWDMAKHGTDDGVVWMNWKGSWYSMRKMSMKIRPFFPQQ
T4 sequence (looked up) 3: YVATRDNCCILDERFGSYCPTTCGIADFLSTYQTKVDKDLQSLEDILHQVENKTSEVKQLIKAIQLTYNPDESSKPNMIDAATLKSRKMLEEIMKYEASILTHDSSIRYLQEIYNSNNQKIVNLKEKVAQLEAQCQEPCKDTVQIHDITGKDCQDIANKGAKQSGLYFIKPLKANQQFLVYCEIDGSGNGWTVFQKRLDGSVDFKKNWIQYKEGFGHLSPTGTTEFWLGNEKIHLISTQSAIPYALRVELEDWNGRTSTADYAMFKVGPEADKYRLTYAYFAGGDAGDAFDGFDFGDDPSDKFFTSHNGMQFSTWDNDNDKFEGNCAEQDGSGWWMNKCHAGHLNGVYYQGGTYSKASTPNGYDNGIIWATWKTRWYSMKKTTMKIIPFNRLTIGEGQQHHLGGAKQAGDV
Method: as §1

[5] = molecular target: T1, human plasma fibronectin; test: ELISA, one site specific binding fit
[6] = molecular target: T2, human vitronectin; test: ELISA, one site specific binding fit
[7] = molecular target: T3, human tenascin C; test: ELISA, one site specific binding fit
[8] = molecular target: T4, human fibrinogen; test: ELISA, one site specific binding fit
[9] = molecular target: T1, human plasma fibronectin; test: ELISA; GST-fused fragment at 100 nM on coated ECM protein, anti-GST detection
Method: (§2) ELISA plates (96-Well Medium Binding, Greiner bio-one) were coated with solutions of 100 nM of human plasma fibronectin (Sigma), human vitronectin (Peprotech), human tenascin C (R&D Systems), or human fibrinogen (Enzyme Research Laboratories) in PBS for 1 h at 37° C. Wells were washed with washing buffer (PBS-T, PBS with 0.05% Tween-20) and blocked with 1% BSA in PBS-T for 1 h at room temperature. Then, wells were incubated with 100 nM of GST-fused PIGF fragments (in PBS-T with 0.1% BSA) for 1 h at room temperature. GST (100 nM) was used as negative control. Wells were washed 3 times with washing buffer and incubated with 0.1 μg/ml of HRP-conjugated antibody against GST (GE Healthcare, RPN1236V) in PBS-T with 0.1% BSA for 45 min at room temperature. Wells were washed 3 times with PBS-T and detection was done with tetramethylbenzidine substrate and measurement of the absorbance at 450 nm.

[10] = molecular target: T2, human vitronectin; test: as above
Method: as §2

[11] = molecular target: T4, human fibrinogen; test: as above
Method: as §2

[12] = molecular target: T1, human plasma fibronectin; test: ELISA of fragments
[13] = molecular target: T2, human vitronectin; test: ELISA of fragments
[14] = molecular target: T4, human fibrinogen; test: ELISA of fragments

T2 sequence (P04004 20-478 limits assumed): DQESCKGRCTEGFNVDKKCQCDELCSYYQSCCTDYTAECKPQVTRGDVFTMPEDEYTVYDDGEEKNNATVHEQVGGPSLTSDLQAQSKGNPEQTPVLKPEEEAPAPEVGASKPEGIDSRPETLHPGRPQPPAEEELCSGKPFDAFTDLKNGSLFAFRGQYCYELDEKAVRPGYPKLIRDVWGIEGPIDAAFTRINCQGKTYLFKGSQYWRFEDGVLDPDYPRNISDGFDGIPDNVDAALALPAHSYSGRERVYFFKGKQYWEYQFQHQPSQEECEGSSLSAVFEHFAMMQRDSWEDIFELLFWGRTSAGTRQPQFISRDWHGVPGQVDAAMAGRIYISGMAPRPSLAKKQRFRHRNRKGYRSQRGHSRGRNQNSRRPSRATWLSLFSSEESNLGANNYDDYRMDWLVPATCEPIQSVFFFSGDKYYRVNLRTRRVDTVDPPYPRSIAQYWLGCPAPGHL
T3 sequence (P24821 23-2201 limits assumed): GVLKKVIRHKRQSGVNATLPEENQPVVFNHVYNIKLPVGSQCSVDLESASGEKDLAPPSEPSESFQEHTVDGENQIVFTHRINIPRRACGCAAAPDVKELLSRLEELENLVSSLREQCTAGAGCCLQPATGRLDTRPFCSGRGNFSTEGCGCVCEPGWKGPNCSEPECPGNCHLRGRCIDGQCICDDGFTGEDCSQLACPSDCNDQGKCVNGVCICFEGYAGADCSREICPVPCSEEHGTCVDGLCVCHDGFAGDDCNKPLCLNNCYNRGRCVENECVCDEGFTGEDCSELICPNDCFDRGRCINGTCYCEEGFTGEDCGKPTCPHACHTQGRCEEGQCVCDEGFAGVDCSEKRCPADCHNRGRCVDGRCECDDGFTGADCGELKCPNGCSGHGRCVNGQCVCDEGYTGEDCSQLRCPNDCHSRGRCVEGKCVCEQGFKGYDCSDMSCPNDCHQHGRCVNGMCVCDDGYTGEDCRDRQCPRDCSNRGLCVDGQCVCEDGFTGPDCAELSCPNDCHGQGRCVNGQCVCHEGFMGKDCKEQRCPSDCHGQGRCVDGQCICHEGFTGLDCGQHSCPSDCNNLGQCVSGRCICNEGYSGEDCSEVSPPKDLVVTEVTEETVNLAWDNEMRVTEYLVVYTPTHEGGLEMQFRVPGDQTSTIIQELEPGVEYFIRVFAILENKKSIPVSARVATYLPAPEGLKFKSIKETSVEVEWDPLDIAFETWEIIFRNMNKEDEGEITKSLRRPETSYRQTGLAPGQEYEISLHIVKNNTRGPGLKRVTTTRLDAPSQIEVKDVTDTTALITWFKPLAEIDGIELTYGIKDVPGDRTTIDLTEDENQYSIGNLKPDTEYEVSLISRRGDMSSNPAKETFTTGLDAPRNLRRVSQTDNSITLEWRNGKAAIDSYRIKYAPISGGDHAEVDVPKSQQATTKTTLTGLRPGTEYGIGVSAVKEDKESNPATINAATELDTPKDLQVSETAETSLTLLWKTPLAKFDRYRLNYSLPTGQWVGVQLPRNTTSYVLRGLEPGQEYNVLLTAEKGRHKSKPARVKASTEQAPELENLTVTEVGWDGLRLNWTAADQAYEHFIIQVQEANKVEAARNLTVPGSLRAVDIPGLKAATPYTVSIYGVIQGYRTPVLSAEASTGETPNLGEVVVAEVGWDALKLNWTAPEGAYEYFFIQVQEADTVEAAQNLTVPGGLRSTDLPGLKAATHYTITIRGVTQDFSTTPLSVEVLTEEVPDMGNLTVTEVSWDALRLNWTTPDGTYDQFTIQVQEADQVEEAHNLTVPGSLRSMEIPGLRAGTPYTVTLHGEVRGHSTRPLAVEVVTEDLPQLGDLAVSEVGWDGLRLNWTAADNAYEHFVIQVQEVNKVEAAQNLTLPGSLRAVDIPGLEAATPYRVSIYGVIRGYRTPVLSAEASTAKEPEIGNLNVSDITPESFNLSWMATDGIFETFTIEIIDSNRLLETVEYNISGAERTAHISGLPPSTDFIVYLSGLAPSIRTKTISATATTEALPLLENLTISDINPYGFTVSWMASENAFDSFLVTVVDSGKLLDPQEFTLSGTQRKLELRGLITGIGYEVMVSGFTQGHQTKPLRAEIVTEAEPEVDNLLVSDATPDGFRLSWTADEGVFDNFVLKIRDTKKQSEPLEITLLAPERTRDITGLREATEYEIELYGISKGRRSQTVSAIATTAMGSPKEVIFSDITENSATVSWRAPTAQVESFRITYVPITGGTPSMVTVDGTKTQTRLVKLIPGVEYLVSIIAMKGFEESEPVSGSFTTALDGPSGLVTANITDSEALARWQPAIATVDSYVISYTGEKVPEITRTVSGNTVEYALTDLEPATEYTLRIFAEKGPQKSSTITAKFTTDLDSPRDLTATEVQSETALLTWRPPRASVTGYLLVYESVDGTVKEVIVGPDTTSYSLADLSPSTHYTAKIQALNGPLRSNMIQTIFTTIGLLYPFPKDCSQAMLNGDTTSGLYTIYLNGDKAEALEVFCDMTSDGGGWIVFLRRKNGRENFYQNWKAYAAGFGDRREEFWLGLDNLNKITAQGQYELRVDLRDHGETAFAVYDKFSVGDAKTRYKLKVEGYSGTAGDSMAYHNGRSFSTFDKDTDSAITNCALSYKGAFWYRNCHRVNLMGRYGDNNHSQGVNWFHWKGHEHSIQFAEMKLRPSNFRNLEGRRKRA
T1 sequence (P02751 other isoform, or with tags, fused parts or gaps limits assumed): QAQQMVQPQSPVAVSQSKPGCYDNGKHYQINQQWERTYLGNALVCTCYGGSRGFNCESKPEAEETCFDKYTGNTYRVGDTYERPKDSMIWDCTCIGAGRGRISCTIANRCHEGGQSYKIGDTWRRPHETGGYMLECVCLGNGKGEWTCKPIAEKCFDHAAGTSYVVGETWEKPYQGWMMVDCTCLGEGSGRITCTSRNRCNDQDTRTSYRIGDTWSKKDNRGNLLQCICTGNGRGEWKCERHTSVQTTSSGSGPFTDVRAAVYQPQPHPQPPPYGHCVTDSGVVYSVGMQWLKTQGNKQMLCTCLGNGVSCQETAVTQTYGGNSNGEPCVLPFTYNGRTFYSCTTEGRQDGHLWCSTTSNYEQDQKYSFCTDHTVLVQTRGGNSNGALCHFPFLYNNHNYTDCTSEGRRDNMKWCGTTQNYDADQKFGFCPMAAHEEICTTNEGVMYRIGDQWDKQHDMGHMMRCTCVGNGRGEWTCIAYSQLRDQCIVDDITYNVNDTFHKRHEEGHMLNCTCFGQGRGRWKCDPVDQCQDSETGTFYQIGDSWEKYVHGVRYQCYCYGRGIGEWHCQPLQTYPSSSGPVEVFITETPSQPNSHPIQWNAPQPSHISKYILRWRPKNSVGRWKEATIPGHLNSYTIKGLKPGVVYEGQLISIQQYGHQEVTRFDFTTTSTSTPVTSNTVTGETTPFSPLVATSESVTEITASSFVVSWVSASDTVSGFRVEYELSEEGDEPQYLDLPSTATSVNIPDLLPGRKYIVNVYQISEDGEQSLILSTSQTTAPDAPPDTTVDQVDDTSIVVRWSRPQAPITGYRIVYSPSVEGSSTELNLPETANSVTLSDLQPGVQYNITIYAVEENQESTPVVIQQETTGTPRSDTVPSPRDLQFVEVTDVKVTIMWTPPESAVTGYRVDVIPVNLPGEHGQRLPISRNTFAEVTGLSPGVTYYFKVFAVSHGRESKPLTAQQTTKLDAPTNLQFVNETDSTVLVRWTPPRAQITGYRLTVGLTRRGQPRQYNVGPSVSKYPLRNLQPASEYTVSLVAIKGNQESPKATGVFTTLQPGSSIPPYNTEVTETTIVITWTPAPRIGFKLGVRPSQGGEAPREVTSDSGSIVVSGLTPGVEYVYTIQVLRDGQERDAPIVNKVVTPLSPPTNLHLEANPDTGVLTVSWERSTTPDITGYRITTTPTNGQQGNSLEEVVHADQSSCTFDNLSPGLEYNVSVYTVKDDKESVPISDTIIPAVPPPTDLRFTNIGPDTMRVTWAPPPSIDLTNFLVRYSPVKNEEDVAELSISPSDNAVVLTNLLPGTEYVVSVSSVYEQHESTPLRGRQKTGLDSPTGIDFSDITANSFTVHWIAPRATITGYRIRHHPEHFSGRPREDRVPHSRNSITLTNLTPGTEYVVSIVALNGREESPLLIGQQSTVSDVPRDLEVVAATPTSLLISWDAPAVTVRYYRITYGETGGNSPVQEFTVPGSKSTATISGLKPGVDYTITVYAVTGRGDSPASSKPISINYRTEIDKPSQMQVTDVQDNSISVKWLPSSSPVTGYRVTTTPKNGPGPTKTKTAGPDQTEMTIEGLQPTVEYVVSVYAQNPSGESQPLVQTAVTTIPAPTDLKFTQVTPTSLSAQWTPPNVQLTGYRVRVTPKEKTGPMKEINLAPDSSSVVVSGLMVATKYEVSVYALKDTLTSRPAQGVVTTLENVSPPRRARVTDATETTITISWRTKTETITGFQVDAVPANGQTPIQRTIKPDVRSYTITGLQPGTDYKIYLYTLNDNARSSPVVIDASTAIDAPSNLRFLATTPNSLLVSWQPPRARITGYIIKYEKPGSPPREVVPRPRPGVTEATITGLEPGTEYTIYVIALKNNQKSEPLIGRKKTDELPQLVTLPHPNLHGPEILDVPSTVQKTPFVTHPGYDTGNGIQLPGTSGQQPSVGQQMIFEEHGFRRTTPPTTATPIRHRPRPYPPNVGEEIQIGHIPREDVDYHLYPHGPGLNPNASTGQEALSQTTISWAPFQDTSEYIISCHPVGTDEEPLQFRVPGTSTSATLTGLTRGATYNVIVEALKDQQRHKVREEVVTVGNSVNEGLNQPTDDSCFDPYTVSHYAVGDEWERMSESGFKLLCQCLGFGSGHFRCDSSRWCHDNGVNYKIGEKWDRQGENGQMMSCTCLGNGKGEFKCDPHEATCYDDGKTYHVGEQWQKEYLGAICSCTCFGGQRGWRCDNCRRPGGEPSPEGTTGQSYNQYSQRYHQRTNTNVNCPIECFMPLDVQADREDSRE

| Binder | Kd [1] [nM] | Kd [2] [nM] | Kd [3] [nM] | Kd [4] [nM] | Kd [5] [nM] | Kd [6] [nM] | further results |
| --- | --- | --- | --- | --- | --- | --- | --- |
| B1 | 129 | 73.2 | 113 | 663 | – | – | – |
| B2 | 67.5 | 32.1 | 94.3 | 206 | – | – | – |
| B3 | 17.7 | 1.4 | 25 | 16.7 | – | – | – |
| B4 | – | – | – | – | 11.6 | 13.9 | Kd [7]: 16.6 nM; Kd [8]: 9.9 nM |
| B5 | – | – | – | – | 8.6 | 13.8 | Kd [7]: 36.8 nM; Kd [8]: 8.2 nM |
| B6 | – | – | – | – | 50.1 | 27.6 | – |
| B7 | – | – | – | – | – | – | binding result [9]: binds; binding result [10]: binds; binding result [11]: binds |
| B8 | 21.9 | 0.7 | 20.7 | 43.5 | – | – | – |
| B9 | – | – | – | – | – | – | binding result [12]: binds; binding result [13]: binds; binding result [14]: binds |
| B10 | – | – | – | – | – | – | binding result [12]: binds; binding result [13]: binds; binding result [14]: binds |
